Results reported in patent publication US20230265516A1 (UNIVERSITY OF ARIZONA ARIZONA BOARD OF REGENTS, published 2023).

Target: T1, nicotinamide phosphoribosyltransferase (NAMPT), secreted form (Homo sapiens (Human), UniProt P43490 1-491)
T1 construct: also called PBEF; visfatin
Experiment: SPR (format not described)

T1 sequence (P43490 whole entry): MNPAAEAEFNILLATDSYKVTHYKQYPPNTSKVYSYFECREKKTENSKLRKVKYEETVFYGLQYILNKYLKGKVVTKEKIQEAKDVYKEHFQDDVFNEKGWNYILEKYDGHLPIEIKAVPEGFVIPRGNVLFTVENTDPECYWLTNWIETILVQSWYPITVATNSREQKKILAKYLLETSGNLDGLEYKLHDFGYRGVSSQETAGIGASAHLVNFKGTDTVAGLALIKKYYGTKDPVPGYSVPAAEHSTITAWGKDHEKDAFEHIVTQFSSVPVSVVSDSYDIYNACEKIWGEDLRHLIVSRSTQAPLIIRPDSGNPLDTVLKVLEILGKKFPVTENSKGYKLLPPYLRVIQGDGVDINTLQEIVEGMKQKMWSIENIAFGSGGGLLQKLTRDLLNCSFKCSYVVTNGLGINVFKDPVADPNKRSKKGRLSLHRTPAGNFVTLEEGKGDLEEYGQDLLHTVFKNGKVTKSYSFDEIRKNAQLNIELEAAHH

- Kd: 4.5 nM
B1: humanized anti-NAMPT monoclonal antibody ALT-100 (antibody, V domains shown)
VH: QVQLVQSGAEVTKPGASVKVSCKASGYTFTSYWMQWVRQAPGQGLEWVGEIEPSNSYTNYNQKFRGRVTLTRDTSTTTVYMELSSLRSEDTAVYYCARGGYWGQGTTVTVSS
VL: DIVMTQSPLSLPVTPGEPASISCRSSKSLLHSQGITYLYWYLQKPGQSPQLLIYQLSNRASGVPDRFSGSGSGTDFTLKISRVEAEDVGVYYCVQNLELPYTFGGGTKLEIK
notes: the in vivo control was an IgG1 antibody; also called ALT-100 mAb; Ab3
